From CN115710309A (INST PASTEUR SHANGHAI CAS, dated 2023)

B1: 单抗2G3 (antibody)
heavy: QVQLQQPGAELVKPGASVKMSCKASGYTFTTYTIHWLRQTPGQGLEWIGAIYPGIGDTSYNQSFKGKATLTADKSSSTAYMQLSSLTSEDSAVYYCARDGNYAPFTYWGQGTLVTVSAAKTTPPSVYPLAPGSAAQTNSMVTLGCLVKGYFPEPVTVTWNSGSLSSGVHTFPAVLQSDLYTLSSSVTVPSSTWPSETVTCNVAHPASSTKVDKKIVPRDCGCKPCICTVPEVSSVFIFPPKPKDVLTITLTPKVTCVVVDISKDDPEVQFSWFVDDVEVHTAQTQPREEQFNSTFRSVSELPIMHQDWLNGKEFKCRVNSAAFPAPIEKTISKTKGRPKAPQVYTIPPPKEQMAKDKVSLTCMITDFFPEDITVEWQWNGQPAENYKNTQPIMDTDGSYFVYSKLNVQKSNWEAGNTFTCSVLHEGLHNHHTEKSLSHSPGK
light: DIVMSQSPSSLAVSVGEKVTMSCKSSQSLLYSNNQKNYLAWYQQKPGQSPKLLIYWTSTRESGVPDRFTGSGSGTDFTLTINSVKAEDLAVYYCQQYYRYPLTVGAGTKLELKRADAAPTVSIFPPSSEQLTSGGASVVCFLNNFYPKDINVKWKIDGSERQNGVLNSWTDQDSKDSTYSMSSTLTLTKDEYERHNSYTCEATHKTSTSPIVKSFNRNEC
B2: 单抗8D3 (antibody, V domains shown)
VH: EVQLQQSGPELVKPGASVKISCKTSGYTFTEYTMYWVKQSHGKSLEWIGGINPNIGDTSYNQNFKGKATLTVDRSSSTAYMELRSLTSEDSAVYYCARDGYPYYYALDHWGQGTSVTVSS
VL: DIVMTQSQKFMSTSVGDRVSVTCKASQNVGTNVAWYQQKPGQSPKALIYSTSYRYSGVPDRFTGSGSGTDFTLTISNVQSEDLAEYFCQQYNSYPYTFGGGTKLEIKR

What was measured:
Test in all cases: cell-based or functional assay
[1] = molecular target: SARS-CoV-2 B.1.617.2突变株S蛋白 (假病毒) (SARS-CoV-2, UniProt P0DTC2 14-1273)
[2] = molecular target: SARS-CoV-2 B.1.351突变株S蛋白 (假病毒) (SARS-CoV-2, UniProt P0DTC2 14-1273)
[3] = molecular target: SARS-CoV-2 B.1.617.1突变株S蛋白 (假病毒) (SARS-CoV-2, UniProt P0DTC2 14-1273)

Binder	假病毒中和 IC50 [1] [ng/mL]	假病毒中和 IC50 [2] [ng/mL]	假病毒中和 IC50 [3] [ng/mL]
B1	84	4	1
B2	8	6	2
